The nature of the data set: yeast display, Sf9 membrane polyspecificity reagent, FACS + sequencing; frameworks hold sequencing errors. The method in brief:
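Galactose-induced (36–48 hours) yeast carrying a synthetic nanobody display library were exposed to 10% biotinylated, detergent-solubilized Sf9 membrane reagent at 4 °C for 1 hour. FACS followed streptavidin microbead enrichment, using low and high (top ~1%) gates for expression (anti-HA) and reagent binding (streptavidin). Colony PCR, MiSeq 2 × 250 sequencing and CDR-length filtering followed. Labels for polyreactivity reflect the gate of origin.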
Turning to “QVQLVESGGGLVQAGGSLRLSCAASGRIFTYYAKGWYRQAPGKERELVAAISWSGGSTYYADSVKARITISRDNAKKTVYLVMNSLNPEDTAVYYCNAVYPSVYPVSTRYYWGQGTQVTVSS”, the “polyreactivity (PSR sort gate)” value was “high polyreactivity”.
Regarding “QVLLVESGGGLVQAGGSLRLSCAASGFTFGVYAMRWYRQAPGKERELVAAISTTVGSTYYADSVKGRFTISRDNAKNTVYLQMNSLKPEDTAVYYCHYPYDYWGQATQVTVSS”, the “polyreactivity (PSR sort gate)” value is listed as “low polyreactivity”.
Under “QVQLVESGGGLVQAGGSLRLSCAASGSIFRGNAMGWYRQAPGKERELVASISKGGGSTDYADSVKGRFIISRDNAKNTVYLQMNSLKPEDNAVYYCNKDYDRPDYYYWGQGTQVTVSS” stands “low polyreactivity”.
Take “QVQLVESGGGLVQAGGSLRLSCAASGSTFYRYAMGWYRQAPGKERELVAGISSSGGSTYYADSVKGRFTISRDNAKNTVYLQMNSLKPEDTAVYYCAAVGQWGYGYWGQGTQVTVSS”: the “polyreactivity (PSR sort gate)” value is reported as “high polyreactivity”.
Take “QVQLVESGGGLVQAGGSLRLSCADSGRIFFKYAMGWYRQAPGKERELVASISRRGGSTTYADSVKGRFTISRDNAKNTVYLQMNSLKPEDTAVYYCNTVSWWGRNYQDEYYYWGQGTQVTVSS”: the “polyreactivity (PSR sort gate)” value is on record as “high polyreactivity”.
Under “QVQLVESGGGLVQAGGSLRLSCAASGRIFPGNAMGWYRQAPGKEREFVAAINTRGGITYYADSVKGRFTISRDNAKNTVYLQMNSLKPEDTAVYYCNKRWSIRSGYPYTYGIYDYWGQGTQVTVSS” stands “low polyreactivity”; under “QVQLVESGGGLVQAGGSLRLSCAASGSTFGYYAMGWYRQAPGKERELVAAISWRGGSTYYADSVKGRFTISRDNAKNTVYLQMNSLKPEDTAVYYCAAAIFITGYGSYGYWGQGTQVTVSS”, “low polyreactivity”; under “QVQLVESGGVLVQAGGSLRLSCAASGRTFRYYGMGWYRQAPGKERVVAAITWSGDTTYYADSVKGRFTISRDNAKNTVYLQMNSLKPEDTAVYYCAAQSWHRYYYWGQGTQVTVSS”, “high polyreactivity”.
Under “QVQLVESGGGLVQAGGSLRLSCAASGRIFYFNAMGWYRQAPGQERELVADISSGGRTNYADSVKGRFTISRDNAKNTVYLQMNSLKPEDTAVYYCNAEPYTSSGGYRGYDFDSWGQGTQVTVSS” stands “low polyreactivity”; under “QVELVYSGGGLVQAGGSLRLSCPASGSTFWYYAMGWSRQPPGKERELVAAINSGGSTFYADSVKGRFTISRDNAKNTVYLQMNSLKPEDTAVYYCAKRSYDYRRYYWGQGTQVTVSS”, “high polyreactivity”.
Under “QVQLVESGGGLVQAGGSLRLTSAASGRTFFRYAMRWYRQAPGKERELVAAISRGGGRTYYADSVKGRFTISRDNAKNTVYLQMNSLKPEDTAVYYCNKTERSGSNYLGQGTQVTVSS” stands “high polyreactivity”.
For “QVQLVESGGGLVQAGGSLRLSCAASGRIFAPYAKGRYRQAPGKERELVAAIRWRGGSTSYADSVKGRFTISRDNAKNTVYLQLNSLKPEDSAVYSCNADYGFSFYWYDYWGHGTQVTVSS”, the “polyreactivity (PSR sort gate)” value is reported as “low polyreactivity”.
For “QVQLVESGGGLVQAGGSLRLSCAASGSIFPKYAMGWYRQAPGKERELVAAITSSGGRTYYADSVKGRFSISRDNAKNTVYLQMNSLKPEDTAVYYCAARYRREAAYGFDYWGQGTQVTVSS”, the “polyreactivity (PSR sort gate)” value is “high polyreactivity”.
Take “QVQIVESGGGLVQAGGNLRLSCAASGFIFTRYAMGWYRQAPGKERELVAAISTSVDRTYYADSVKGRFSISRDNAKNTVYLQMNSLKPEDTAVYYCAVVRPRSVGRYDYWGQGTQVTVSS”: the “polyreactivity (PSR sort gate)” value is “high polyreactivity”.
Under “QVQLVESGGGLVQAGGSLRLSCAASGSIFPHYAMGWYRQAPGKERELVAAISRGGSTNYADSVKGRFTISRDNAKNTVYLQMNSLKPEDTAVYYCAAQGNRYANDYWGQGTQVTVSS” stands “high polyreactivity”.
“QVQLVESGGCLVQAGGSLRLSCAASGSIFSKNTMGWSRQAPGKDRELVATISIGGGSTYYADSVKGRFTISRDNAKNTVYLQMNSLKPADSAVYYCNASLRRPFSLYYYWGQGTQVTVSS”: the “polyreactivity (PSR sort gate)” value is on record as “high polyreactivity”.
Under “QVQLVESGGGLVQAGGSLRLSCAASGFTFYYYAMGWYRQAPGKERELVAAIDTGGSTNYADSVKGRFTISRDNAKNTVYLQMNSLKPEDTAVYYCNADTPDHYGHYDYWGQGTQVTVSS” stands “low polyreactivity”; under “QVQLVESGGGLVQAGGSLRLSCAAYGSIFSGYTMGCYRQAPGKERELVAAITQRGTRTYYADSVKGRFTISRDNAKNTVYLQMNSLKPEDTAVYYCAAVRSYYSNRGYDYWGQGTQVTVSS”, “high polyreactivity”.
As for “QVQLVESGGGLVQAGGSLRLSCAASGFTFYAYAMGWYRQAPGKERELVAAITWDDDSTSYADSVKGRFTISRDNAKNTVYLQMNSLKPEDTAVYYCAADSIRHRRYKYDYWGQGTQVTVSS”, the “polyreactivity (PSR sort gate)” value is “low polyreactivity”.
Under “QVQLVESGGGLVQAGGSLRLICAASGSIFRYYAMGWYRQAHGKERELLAAISYSGGSTYYADSVKGRFTISRDNAKNTVYLQMNSLKPEDTAVYYCAKGRHTTRASIAFNYWGQGTQVTVSS” stands “high polyreactivity”.
“RVHLQESGGGLVQAGGSLRLSCAASGTIFIRGDMGWYRQAPGKEREFVATIDTVSNTYYADSEKGRFTISRDNAKNAVYLQMNCLNPGDTAVYYCVVDYQLAGRLRYWGQGTQVTLSS”: the “polyreactivity (PSR sort gate)” value is reported as “low polyreactivity”.
Under “QVQLVESGGGLVQAGGSLRLSCAASGRTSVVNAMGWYRQAPGKERELVAAITSGGSTHYADSVKGRFTISRDNAKNTVYLPMNSLKPEDTAVYYCNARDRRRTNLLDYWGQGTQVTVSS” stands “low polyreactivity”.
Under “QVQLVESGGGLVQAGGSLRLSCAASGSTFGYYAMGWYRQAPGKEREFVAAITSDGSSTYYADSVKGRFTISRDNAKNTVYLQMNSMKREDTAVYYCAADTFTYGGYKFYIFYWGQGTQVTVSS” stands “high polyreactivity”.
“QVQLVESGGGLVQAGGSIRLSCAASGSTIGKNVMGWYRQAPGKERELVAAISARGGRTYYGDSVKGRFTISRDNAKNTVYLQMNSLKPVDTAVYYCNTERSYTGTGRYHSSTAYGYWGQGTQVTVSS”: the “polyreactivity (PSR sort gate)” value is recorded as “high polyreactivity”.
Under “QVQLVESGGGLVQAGGSLRLSCAASGRIFVYYAMGWYSQAPGKERELVASISYSGASTYYADSVKGRFTISRDNAKNTVYLQMNSLKPEDTAVYYCNTDGDDFFHVIYDYWGQGTQVTVSS” stands “low polyreactivity”; under “QVQLVESGGGLVQAGGSLRLSCAASGRNFWLNAMGWYRPEPGKERELVATISRGGSTNYADSVKGRFTISRDNAKNTVYLQMNSLKPEDTAVYYCAARPYSYYWNSELDYWGQGTQVTVSS”, “high polyreactivity”; under “QVQLVESGGGLVQAGGSLRLSCAASGSIFKPYAMGWYRQAPGKERELVAAINRGGTSTYYADSVKGRFTISRDNAKNTVYLQMISLKPEDTAVYYCAAPNRYSVPMYYWGQGTQVTVSS”, “low polyreactivity”.
Under “QVQLVESGGGLVQAGGSLRLSCAASGITFYRYVMGWYRQAPGKERELVAAITSRGGSTSYADSVKGRFTISRDNAKNTVYLQMNSLKPEDTAVYYCAAVYRRDYDYWGQGTQVTVSS” stands “high polyreactivity”.
Under “QVQLVESGGGLVQAGGSLRLSCAASGITFVANAMGWYRQAPGKERELVAAISYSGASTYADSVKGRFTISRDNAKNTVYLQMNSLKPEDTAVYYCAKDGPYTYGREIYVYWGQGTLVTVSS” stands “low polyreactivity”; under “QVQLVESGGGLVQAGGSLRLSCAASGFTIRYYTMGWYRQAPGKERELVAAITWSGGRTYYADSVKGRFTISRDNAKNTVYLQMNSLKPEDTAVYYCAADVTKRASRDYYWGQGTQVTVSS”, “high polyreactivity”; under “QVQLVESGGGLVQAGGSLRLSCAASGSIFYPYAMGWYRQAPGKERELVAAISSSGGSTYYADSVKGRFTISRDNAKNTVYLQMNSLKPEDTAVYYCAADAATGIFDRLNYWGQGTQVTVSS”, “high polyreactivity”.
For the sequence “QVQLVESGGGLVQAGGSLRLSCAASGRTFGHNAMGWYRQAPGKERELVAAISASGSNTYYADSVKGRFTISRDNAKNTVYLQMNSLKPEDTAVYYCAKQVYRPGQQSRYDYWGQGTQVTVSS”, the “polyreactivity (PSR sort gate)” value is given as “low polyreactivity”.
Under “QVQIVESGGGLVQAGGSLRLSCPASGLTFAWYAMGWYRQAPWTERELVAAINRSGGSTSYADSVKGRFTISRDNAMNTVYLQMNSLKPEDTAVYYCAAQLGYTTLGLIYWGQGTQVTVSS” stands “low polyreactivity”; under “QVQLQESGGDLEQAGGSLRLSCTASGTNSDVRVMGWYRQAPGKERELVATISYVTITYYADSVKGRLTISRDSEKHRVSADDEPETGRYRGVLLRYYWGLGTQVTVSS”, “low polyreactivity”; under “QVQIVESGGGLVQAGGSLRLSCAASGRTFYFYVMGWYRQAPGKERELVAAISWSGTSTYYADSVKGRFTISRDNAKNTVYLQMNSLKPEDTAVYYCNGITRYDYWGQGTQVTVSS”, “low polyreactivity”.
In the case of “QVQLVESGGGLVQAGGSLRLSCAASASTFGSYAMGWYRQAPGKERELVAAISRAGSTYADSVKGRFTISRDNAKNTVYLQMNSLKTEDTAVYYCAKRDYALYYGYDYWGQGTQVTVSS”, the “polyreactivity (PSR sort gate)” value is “low polyreactivity”.
Under “QVQLVESGGGLVQAGGSLRLSCAASGFTLADNTMGWYRQAPGKERQLVATISSDGNTNYADSVKGRFTISRDNAKNTVYLQMNSLKPEDTAVYYCNAEGVFGDVRSGFYWYDYWGQGTQVTVSS” stands “low polyreactivity”; under “QVQLVESGGGLVQAGGSLRLSCADSGQNAMGWYRQAPGKERELVAAISRGGDSTYYADSVKGRFTISRDNAKNSVYLQMNSLKPEDTAVYYCAASYYRRYGYNYWGQGTQVTVSS”, “high polyreactivity”; under “QVQLVESGGGLVQAGVSLRLSCAASGFIFSTYAMGGYRQAPGKERELFASIDWSGDSTYYADSVKGRFTISRDNAKNTVYLQMNSLKPEDTAVYYCAASLWPDYEYDYWGQGTQVTVSS”, “low polyreactivity”.
Under “QVQLVESGGGLVQAGGSLRLSCAASGSTFYRYAMGWYRQAPGKERELVAAISYRGGSTYYADSVKGRFTISRDNAKNTVYLQMNSLKPEDTAVYYCNKRSTRRYDYWGQGTQETVSS” stands “high polyreactivity”.
For “QVQLVESGGGLVQAGGSLRLSCAASGLTFYGYGMGWYRPGPGKERELVASITSGGNTYYADSVKGRFTISRDNAKNNVYLQMYSLKPEDNAVSYCAVTAIALYYSSGYYWGQGTQVTVSS”, the “polyreactivity (PSR sort gate)” value is recorded as “low polyreactivity”.
